{
  "source": "paper PMC4596410",
  "origin": "cited, not measured here",
  "biological_target": "Lys115 (UniProt position 115, LSAYPKKLGYP)",
  "data": [
    {"substance": "Acetoacetate decarboxylase (not stated in the article (Clostridium acetobutylicum inferred))", "values": [
      {"measurement": "pKa", "result": 6}
    ]}
  ]
}
